Measured values reported in US20250195637A1.

What was measured:
[1] = biological target: F RSV v.1, native (wild-type) F protein of hRSV, RSV A2 strain (human respiratory syncytial virus (hRSV), RSV A2 strain) (UniProt P03420); test: flow cytometry, Palivizumab-PE on LLC-MK2 cells infected with Bivalent Metavac®-RSV v.1
[2] = biological target: F RSV v.3, chimeric HMPV/RSV stabilized F pre-fusion form (mutated extracellular domain of F protein from hRSV with transmembrane and cytoplasmic domains of F protein from hMPV C-85473) (chimera of hRSV (RSV A2 strain, mutated) and hMPV (C-85473)); test: flow cytometry, Palivizumab-PE on LLC-MK2 cells infected with Bivalent Metavac®-RSV v.3
[3] = biological target: F RSV v.2, mutated F protein from hRSV corresponding to the stabilized prefusion state (human respiratory syncytial virus (hRSV), RSV A2 strain, mutated) (UniProt P03420); test: flow cytometry, Palivizumab-PE on LLC-MK2 cells infected with Bivalent Metavac®-RSV v.2
[4] = biological target: Wild-type F protein from the hMPV strain rC-85473 (human metapneumovirus (hMPV), strain rC-85473) (UniProt Q6WB98); test: flow cytometry, HMPV24-A647 on LLC-MK2 cells infected with rC-85473
[5] = biological target: Wild-type F protein from the hMPV strain rC-85473 (human metapneumovirus (hMPV), strain rC-85473) (UniProt Q6WB98); test: flow cytometry, HMPV24-A647 on LLC-MK2 cells infected with Bivalent Metavac®-RSV v.3
[6] = biological target: Wild-type F protein from the hMPV strain rC-85473 (human metapneumovirus (hMPV), strain rC-85473) (UniProt Q6WB98); test: flow cytometry, HMPV24-A647 on LLC-MK2 cells infected with Bivalent Metavac®-RSV v.1
[7] = biological target: Wild-type F protein from the hMPV strain rC-85473 (human metapneumovirus (hMPV), strain rC-85473) (UniProt Q6WB98); test: flow cytometry, HMPV24-A647 on LLC-MK2 cells infected with Bivalent Metavac®-RSV v.2

Substance | Infected cells expressing RSV-F [%, GFP and PE positive cells] [1] | Infected cells expressing RSV-F [%, GFP and PE positive cells] [2] | Infected cells expressing RSV-F [%, GFP and PE positive cells] [3] | Infected cells expressing HMPV-F [%, GFP and A647 positive cells] [4] | Infected cells expressing HMPV-F [%, GFP and A647 positive cells] [5] | Infected cells expressing HMPV-F [%, GFP and A647 positive cells] [6] | Infected cells expressing HMPV-F [%, GFP and A647 positive cells] [7]
Palivizumab Synagis® AstraZeneca, monoclonal humanized antibody detecting both pre-fusion and post-fusion forms of the F RSV protein | 65.5% | 47.2% | 54.6% |  |  |  | 
Monoclonal mouse antibody detecting the F HMPV protein (MAb HMPV24 BioRad MCA 4674) |  |  |  | 98.9% | 85.2% | 94.8% | 94.8%
